Test results as given in US20250332297A1, “DLL3-SPECIFIC BINDING CONSTRUCTS AND THEIR USE IN RADIOTHERAPY” (MOLECULAR PARTNERS AG, priority 2024, published 2025).

What was measured:
NCI-H82 tumor model = experiment: Biodistribution of radio-labelled DARPin conjugates in NCI-H82 tumor model; settings: for T:K ratio: R2G2 mice; for Blood % ID/g / Kidneys % ID/g / Tumors % ID/g: mouse, in vivo, iv, 0.01 mg/kg
Description: NCI-H82 tumor model. R2G2 mice were purchased from Envigo. All studies were conducted under the approval of the institutional IACUC committee. Animals were maintained under specific-pathogen-free (SPF) conditions with daily cycles of light and darkness (12 h/12 h), in line with ethical guidelines. No manipulations were performed during the first 5 days after arrival, to allow the animals to acclimatize to the new environment. All mice were monitored daily for assessment of physical condition and general well-being. NCI-H82 cells were purchased from ATCC (Catalog No. HTB-175). Solid xenografts were established by subcutaneous (SQ) injection of NCI-H82 cells in RPMI media mixed 1:1 with Corning® Matrigel® basement membrane matrix (GFR; Corning, Cat No 354230.). Cells were quantified using Countess cell counter. Each mouse was injected SQ with 5×10^6 NCI-H82 cells in 100 μL RPMI/GFR-Matrigel into the right flank of each mouse. Tumor volumes were estimated three times per week through calipering, according to the formula: volume=0.5×length×width^2 and grown until they reached 200-300 mm^3. Tumor-associated antigen level expressed in tumors, tumor vascularization profile and DLL3 soluble form in mouse serum was tested.
Biodistribution study. […] Radio-labeled (Pb-212) DARPin conjugates were then injected at 0.01 mg/kg (10 μCi DARPin conjugates) into the tail vein of R2G2 mice (females) xenografted subcutaneously (at age of about 7 weeks) with NCI-H82 cells (5 million cells, growth factor reduced Matrigel) and bearing tumors (5-10 mm in diameter). […] Biodistribution was monitored at 4 h and 24h post-injection. Mice were euthanized by CO2 inhalation and cervical dislocation. Blood, spleen, kidneys, liver and tumor were extracted, weighed and the radioactivity was determined with a γ-counter counter (such as Wizard^22470, Perkin Elmer). The data were expressed as the % injected dose/gram (% ID/g).
Radio-labeled (Pb-212) DARPin conjugates were then injected at 0.01 mg/kg (10 μCi DARPin conjugates) into the tail vein of R2G2 mice (females) xenografted subcutaneously (at age of about 7 weeks) with NCI-H82 cells (5 million cells, growth factor reduced Matrigel) and bearing tumors (5-10 mm in diameter). Biodistribution was monitored at 4 h and 24h post-injection. Mice were euthanized by CO2 inhalation and cervical dislocation. Kidneys and tumor were extracted, weighed and the radioactivity was determined with a γ-counter counter (such as Wizard^22470, Perkin Elmer). The data were expressed as the % injected dose/gram (% ID/g) and the tumor to kidney (T:K) ratio was determined.
Radio-labelled (Pb-212) DARPin conjugates were then injected at 0.01 mg/kg (10 μCi DARPin conjugates) (i) into the tail vein of R2G2 mice (females) xenografted subcutaneously (at age of about 7 weeks) with NCI-H82 cells (5 million cells, growth factor reduced Matrigel) and bearing tumors (5-10 mm in diameter), and (ii) into the tail vein of athymic nude mice (females) xenografted subcutaneously (at age of about 7 weeks) with hDLL3-MC38 cells (5 million cells, growth factor reduced Matrigel) and bearing tumors (5-10 mm in diameter). Biodistribution was monitored at 4 h and 24h post-injection. Mice were euthanized by CO2 inhalation and cervical dislocation. Blood, bladder, small intestine, colon, spleen, kidneys, liver, lung, heart, tail and tumor were extracted, weighed and the radioactivity was determined with a γ-counter (such as Wizard^22470, Perkin Elmer). The data were expressed as the % injected dose/gram (% ID/g).

mouse serum albumin = target: T1, mouse serum albumin (Mus musculus, UniProt P07724); experiment: SPR binding to mouse serum albumin (Example 18); settings: immobilized MSA, 1:1 Langmuir, Table 21
T1 construct: purchased Sigma-Aldrich
Description: SPR multi-trace analyses were performed similarly as described in previous Examples. The following ankyrin repeat proteins analyzed: (i) MAM279 (SEQ ID NO: 11) (with a Glycine-Serine (GS) at its N-terminal end); and (ii) MAM279 (SEQ ID NO: 11), with a Glycine-Serine (GS) at its N-terminal end and a tag (SEQ ID NO: 10) at its C-terminal end (resulting in GS-MAM279-tag (SEQ ID NO: 15)), conjugated to the chelator DOTAM as described in Example 3.
All analytes (3-fold dilution ranging from 600-7.41 nM) were injected in succession for 240 s and dissociation was recorded for 600 s using a constant flow of 25 μl/min (HSA) or 100 μl/min (MSA) (25 μl/min). […] The obtained SPR traces were used to determine the DARPin-serum albumin interaction parameters, and results are summarized in Table 21.

T1 sequence (P07724 25-608): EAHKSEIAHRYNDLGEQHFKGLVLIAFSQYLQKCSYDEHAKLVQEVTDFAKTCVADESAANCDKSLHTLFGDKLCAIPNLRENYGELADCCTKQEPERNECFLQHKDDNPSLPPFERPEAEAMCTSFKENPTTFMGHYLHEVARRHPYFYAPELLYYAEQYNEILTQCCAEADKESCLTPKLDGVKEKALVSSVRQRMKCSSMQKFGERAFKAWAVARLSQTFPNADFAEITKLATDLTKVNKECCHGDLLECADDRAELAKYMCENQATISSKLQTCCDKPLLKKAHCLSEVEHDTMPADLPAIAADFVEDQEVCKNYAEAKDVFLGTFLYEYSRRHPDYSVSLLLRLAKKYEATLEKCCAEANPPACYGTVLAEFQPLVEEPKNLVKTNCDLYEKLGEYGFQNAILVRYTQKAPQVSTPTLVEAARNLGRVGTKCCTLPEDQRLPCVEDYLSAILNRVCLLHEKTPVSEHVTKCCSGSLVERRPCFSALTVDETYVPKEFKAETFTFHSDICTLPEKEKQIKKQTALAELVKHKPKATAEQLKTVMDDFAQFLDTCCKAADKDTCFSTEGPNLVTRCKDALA

Row | Molecule | T:K ratio (NCI-H82 tumor model; Pb-212 DOTAM conjugate 0.01 mg/kg (10 μCi) i.v., s.c. NCI-H82, 24 h, Example 9) | T:K ratio (NCI-H82 tumor model; Pb-212 conjugate, NCI-H82 cells xenografted intravenously instead of subcutaneously, 24 h (data not shown)) | Koff MSA (mouse serum albumin) | Kon MSA (mouse serum albumin) | Blood % ID/g (NCI-H82 tumor model; 4 h) | Kidneys % ID/g (NCI-H82 tumor model; 4 h) | Tumors % ID/g (NCI-H82 tumor model; 4 h) | Blood % ID/g (NCI-H82 tumor model; 24 h) | Kidneys % ID/g (NCI-H82 tumor model; 24 h) | Tumors % ID/g (NCI-H82 tumor model; 24 h) | Kd (mouse serum albumin)
1 | MAM279 conjugate: SEQ ID NO: 15 conjugated to DOTAM-maleimide, labelled with Pb-212 (natural lead in PK studies) (conjugate, DOTAM-maleimide, Pb-212 label; Ankyrin repeat protein with tag (GS-MAM279-tag)) GSDLGKKLLEAARAGQDDEVRELLKAGADVNAKDYFSHTPLHLAARNGHLKIVEVLLKAGADVNAKDFAGKTPLHLAADAGHLEIVEVLLKAGADVNAQDIFGKTPADIAADAGHEDIAEVLQKAAGSPTPTPTTPTPTPTTPTPTPTGSDLGKKLLAAAAQGQDDEVRELLKAGANVNAKDLFGYTPLHLAAWRGHLEIVEVLLKAGADVNAKDAAGETPLHLAAWFGHLEIVEVLLKAGADVNAQDLQGKTPADLAAKEGHEDIAEVLQKAAGSGSC | above 1 | above 1 |  |  |  |  |  |  |  |  | 
2 | MAM279-DOTAM: GS-MAM279-tag (SEQ ID NO: 15) conjugated to the chelator DOTAM via C-terminal tag and maleimide connector, no radionuclide (conjugate, DOTAM chelator via maleimide on C-terminal tag; Ankyrin repeat protein with tag (GS-MAM279-tag)) GSDLGKKLLEAARAGQDDEVRELLKAGADVNAKDYFSHTPLHLAARNGHLKIVEVLLKAGADVNAKDFAGKTPLHLAADAGHLEIVEVLLKAGADVNAQDIFGKTPADIAADAGHEDIAEVLQKAAGSPTPTPTTPTPTPTTPTPTPTGSDLGKKLLAAAAQGQDDEVRELLKAGANVNAKDLFGYTPLHLAAWRGHLEIVEVLLKAGADVNAKDAAGETPLHLAAWFGHLEIVEVLLKAGADVNAQDLQGKTPADLAAKEGHEDIAEVLQKAAGSGSC |  |  | 0.0425 s⁻¹ | 155000 M⁻¹ s⁻¹ |  |  |  |  |  |  | 
3 | MAM160: Two domain (2D) ankyrin repeat protein: serum albumin-specific domain (SEQ ID NO: 7), PT linker, DLL3-specific domain MAM120 (protein, Ankyrin repeat protein (MAM160)) DLGKKLLEAARAGQDDEVRELLKAGADVNAKDYFSHTPLHLAARNGHLKIVEVLLKAGADVNAKDFAGKTPLHLAADAGHLEIVEVLLKAGADVNAQDIFGKTPADIAADAGHEDIAEVLQKAAGSPTPTPTTPTPTPTTPTPTPTGSDLGTKLLSAAADGQDDEVRELLQAGADVNAKDLFGYTPLHLAAWRGHLEIVEVLLEAGADVNAKDAAGLTPLHLAAWFGHLEIVEVLLEAGADVNAQDVQGVTPADLAAKEGHEDIAEVLQQAA |  |  |  |  | 13.8 % ID/g | 12.4 % ID/g | 7.1 % ID/g | 3.2 % ID/g | 18.7 % ID/g | 13.3 % ID/g | 
4 | MAM279: Two domain (2D) ankyrin repeat protein: serum albumin-specific domain (SEQ ID NO: 7), PT linker, DLL3-specific domain of MAM093 (protein, Ankyrin repeat protein (MAM279)) DLGKKLLEAARAGQDDEVRELLKAGADVNAKDYFSHTPLHLAARNGHLKIVEVLLKAGADVNAKDFAGKTPLHLAADAGHLEIVEVLLKAGADVNAQDIFGKTPADIAADAGHEDIAEVLQKAAGSPTPTPTTPTPTPTTPTPTPTGSDLGKKLLAAAAQGQDDEVRELLKAGANVNAKDLFGYTPLHLAAWRGHLEIVEVLLKAGADVNAKDAAGETPLHLAAWFGHLEIVEVLLKAGADVNAQDLQGKTPADLAAKEGHEDIAEVLQKAA |  |  | 0.0383 s⁻¹ | 267000 M⁻¹ s⁻¹ | 23 % ID/g | 11 % ID/g | 8 % ID/g | 13 % ID/g | 25 % ID/g | 29 % ID/g | 144 nM
